Measured values published in PMC9747239, “State-selective modulation of heterotrimeric Gαs signaling with macrocyclic peptides” (Cell, 2022).

Target: T1, His-Gβ1/Gγ2(C68S) (human, UniProt P62873 1-340; P59768 1-71, C68S)
T1 construct: human Gβ1 (GNB1); human Gγ2 (GNG2) with C68S; also called Gβγ; Gβγ(C68S); source: Sf9, baculovirus (pFastBac Dual), co-expressed, purified (TALON, gel filtration); not shown: His6, N-terminal, kept
Experiment: AlphaScreen or HTRF; TR-FRET Gα/Gβγ interaction assay: 4 nM biotinylated avi-Gα with streptavidin XL665, 2 nM His-Gβ1/γ2(C68S) with anti-6His-Tb cryptate, cyclic peptide 0-10,000 nM; 1X PBS 7.4, 2 mM DTT, 0.1% BSA, 2 mM MgCl2, 0.05% Tween, 0.5 mM GDP, 2 h at room temperature
Details: both partners purified

T1 sequence (P62873 whole entry, chain 1 of 2): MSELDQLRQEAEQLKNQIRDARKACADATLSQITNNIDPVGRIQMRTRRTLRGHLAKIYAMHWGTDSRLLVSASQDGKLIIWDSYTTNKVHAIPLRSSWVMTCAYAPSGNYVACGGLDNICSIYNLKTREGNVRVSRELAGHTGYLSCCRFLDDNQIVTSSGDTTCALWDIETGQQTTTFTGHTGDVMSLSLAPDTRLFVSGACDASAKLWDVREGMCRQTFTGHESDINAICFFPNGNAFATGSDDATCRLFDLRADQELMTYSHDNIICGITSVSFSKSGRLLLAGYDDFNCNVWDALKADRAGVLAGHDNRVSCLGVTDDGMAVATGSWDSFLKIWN
T1 sequence (P59768 whole entry C68S, chain 2 of 2): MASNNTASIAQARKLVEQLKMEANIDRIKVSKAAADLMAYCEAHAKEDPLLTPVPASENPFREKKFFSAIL

B1: Biotinylated Avi-Gαs (WT), residues 7-380 of the short isoform of human Gαs (natural protein)
chain: SKTEDQRNEEKAQREANKKIEKQLQKDKQVYRATHRLLLLGAGESGKSTIVKQMRILHVNGFNGDSEKATKVQDIKNNLKEAIETIVAAMSNLVPPVELANPENQFRVDYILSVMNVPDFDFPPEFYEHAKALWEDEGVRACYERSNEYQLIDCAQYFLDKIDVIKQADYVPSDQDLLRCRVLTSGIFETKFQVDKVNFHMFDVGGQRDERRKWIQCFNDVTAIIFVVASSSYNMVIREDNQTNRLQEALNLFKSIWNNRWLRTISVILFLNKQDLLAEKVLAGKSKIEDYFPEFARYTTPEDATPEPGEDPRVTRAKYFIRDEFLRISTASGDGRHYCYPHFTCAVDTENIRRVFNDCRDIIQRMHLRQYELL
modifications: biotin on the Avi tag (BirA)
notes: human Gαs (GNAS), short isoform, residues 7-380; Loaded with GNP (GppNHp) or GDP; the nucleotide state is told by the assay; also called Gαs/GNP; Gαs/GDP; source: E. coli BL21(DE3), purified (TALON, Drice cleavage, BirA biotinylation, Source-15Q, gel filtration); not shown: Avi tag, N-terminal, kept; His6, N-terminal, cleaved
binding result: binds
